According to patent US20240124607A1 (Merck Sharp & Dohme, published 2024):
Residue numbers refer to the chain shown, from its start.

Legend:
[1] = target: T1, human CEACAM5 on cells (human, UniProt P06731 35-685); experiment: flow cytometry, MKN-45 cells
T1 construct: tumour cell lines with endogenous CEACAM5, or B16F10 engineered to express hCEACAM5; also called CEACAM5 on MKN-45, HPAF-II, SK-CO-1, LoVo, BxPC-3, Kato-III, LS-174T, ZR-75-30; hCEACAM5-B16F10
T1 sequence: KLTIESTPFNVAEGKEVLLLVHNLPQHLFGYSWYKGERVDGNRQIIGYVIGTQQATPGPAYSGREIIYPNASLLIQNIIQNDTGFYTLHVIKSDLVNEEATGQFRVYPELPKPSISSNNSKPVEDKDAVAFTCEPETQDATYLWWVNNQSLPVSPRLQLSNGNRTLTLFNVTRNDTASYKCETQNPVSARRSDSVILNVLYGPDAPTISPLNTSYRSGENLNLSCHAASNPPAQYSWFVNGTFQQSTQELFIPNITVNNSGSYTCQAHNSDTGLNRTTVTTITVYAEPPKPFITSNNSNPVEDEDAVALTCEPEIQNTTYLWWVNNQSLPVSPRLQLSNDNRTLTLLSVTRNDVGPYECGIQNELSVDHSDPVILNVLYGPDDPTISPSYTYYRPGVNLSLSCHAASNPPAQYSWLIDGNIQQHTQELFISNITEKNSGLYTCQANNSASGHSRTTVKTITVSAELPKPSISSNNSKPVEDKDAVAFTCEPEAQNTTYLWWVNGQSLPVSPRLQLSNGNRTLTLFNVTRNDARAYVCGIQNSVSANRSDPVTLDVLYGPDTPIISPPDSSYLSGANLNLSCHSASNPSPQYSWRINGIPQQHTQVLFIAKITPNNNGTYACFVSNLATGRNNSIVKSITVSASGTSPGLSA
Method: MKN-45 and HPAF-II human cancer cell lines were diluted into FACS buffer and 100,000 cells of each cell type were seeded per well in duplicate into 96-well plates for FACS staining. The cells were washed with PBS, incubated in a 1:2000 dilution of live/dead dye in PBS for 15 minutes, and then washed with FACS buffer. AB0264, AB0411, AB0466, and AB0621 were diluted into FACS buffer, and 50 μl of each diluted TriNKET was added to the cells. After incubation on ice for 30-120 minutes, the cells were washed with FACS buffer. Anti-human IgG-Fc secondary antibody was diluted into FACS buffer, and 50 μl was added per well for detection of the bound TriNKETs. The cells were incubated for 30-60 minutes on ice and then washed with FACS buffer. 50 μl of fixation buffer was added to each well and the cells were incubated for 10 minutes at room temperature. The cells were washed with FACS buffer and resuspended in FACS buffer for analysis with ThermoFisher Attune NxT, BD FACS Celesta SN #H66034400085, or BD FACS Celesta SN #H66034400160.

[2] = target: T2, Human CEACAM5 (E398) (human, UniProt P06731 35-685, limits assumed); experiment: SPR, 37C, pH 7.4
T2 construct: also called hCEACAM5
T2 sequence: T1 sequence

[3] = target: T3, Human CEACAM5 (K398) (human, UniProt P06731 35-685, limits assumed); experiment: SPR, 37C, pH 7.4
T3 construct: also called K398 allele
T3 sequence: T1 sequence with E364K

[4] = target: T4, Human CEACAM5 I112V (human, UniProt P06731 35-685, limits assumed); experiment: SPR, 37C, pH 7.4
T4 sequence: T1 sequence with I78V

EC50 [1]: 16.2 nM
Max FOB [1]: 120 fold over background
Kd [2]: 1.7 nM
kon [2]: 270000 M⁻¹ s⁻¹
Kd [3]: 1.4 nM
kon [3]: 270000 M⁻¹ s⁻¹
Kd [4]: 2 nM
kon [4]: 190000 M⁻¹ s⁻¹
B1: AB0411 F3' CEACAM5 TriNKET (bispecific antibody, human IgG1, kappa)
chain: DIQLTQSPATLSVSPGERATLSCRASQSVSSSYLAWYQQKPGQAPRLLIYGASSRATGIPDRFSGSGSGTDFTLTISRLEPEDFAVYYCQQYNNWPLTFGCGTKVEIKGGGGSGGGGSGGGGSGGGGSQVQLVQSGGGLVQPGGSLRLSCAASGFTFTSYAMSWVRQAPGKCLEWVSAISGTGDSTFYADSVKGRFTFSRDNSKNTLYLQMNSLRAEDTAVYYCAKDLGWLQYGLFDYWGQGTLVTVSSGSDKTHTCPPCPAPELLGGPSVFLFPPKPKDTLMISRTPEVTCVVVDVSHEDPEVKFNWYVDGVEVHNAKTKPREEQYNSTYRVVSVLTVLHQDWLNGKEYKCKVSNKALPAPIEKTISKAKGQPREPRVYTLPPCRDELTKNQVSLTCLVKGFYPSDIAVEWESNGQPENNYKTTPPVLVSDGSFTLYSKLTVDKSRWQQGNVFSCSVMHEALHNHYTQKSLSLSPG
heavy: EVQLVESGGGLVKPGGSLRLSCAASGFTFSSYSMNWVRQAPGKGLEWVSSISSSSSYIYYADSVKGRFTISRDNAKNSLYLQMNSLRAEDTAVYYCARGAPIGAAAGWFDPWGQGTLVTVSSASTKGPSVFPLAPSSKSTSGGTAALGCLVKDYFPEPVTVSWNSGALTSGVHTFPAVLQSSGLYSLSSVVTVPSSSLGTQTYICNVNHKPSNTKVDKKVEPKSCDKTHTCPPCPAPELLGGPSVFLFPPKPKDTLMISRTPEVTCVVVDVSHEDPEVKFNWYVDGVEVHNAKTKPREEQYNSTYRVVSVLTVLHQDWLNGKEYKCKVSNKALPAPIEKTISKAKGQPREPQVCTLPPSRDELTENQVSLTCLVKGFYPSDIAVEWESNGQPENNYKTTPPVLDSDGSFFLYSWLTVDKSRWQQGNVFSCSVMHEALHNHYTQKSLSLSPG
light: DIQMTQSPSSVSASVGDRVTITCRASQGISSWLAWYQQKPGKAPKLLIYAASSLQSGVPSRFSGSGSGTDFTLTISSLQPEDFATYYCQQGVSFPRTFGGGTKVEIKRTVAAPSVFIFPPSDEQLKSGTASVVCLLNNFYPREAKVQWKVDNALQSGNSQESVTEQDSKDSTYSLSSTLTLSKADYEKHKVYACEVTHQGLSSPVTKSFNRGEC
